Patent US20240384250A1, “FIBROBLAST GROWTH FACTOR 23 MODULATING COMPOUNDS” (THE UAB RESEARCH FOUNDATION, priority 2021, published 2024)

T1: FGFR4 (Homo sapiens, UniProt P22455)
T1 construct: Fc-FGFR4 protein (human ectodomain) was immobilized; purchased R&D Systems 685FR050
T1 sequence (P22455 22-369 limits assumed): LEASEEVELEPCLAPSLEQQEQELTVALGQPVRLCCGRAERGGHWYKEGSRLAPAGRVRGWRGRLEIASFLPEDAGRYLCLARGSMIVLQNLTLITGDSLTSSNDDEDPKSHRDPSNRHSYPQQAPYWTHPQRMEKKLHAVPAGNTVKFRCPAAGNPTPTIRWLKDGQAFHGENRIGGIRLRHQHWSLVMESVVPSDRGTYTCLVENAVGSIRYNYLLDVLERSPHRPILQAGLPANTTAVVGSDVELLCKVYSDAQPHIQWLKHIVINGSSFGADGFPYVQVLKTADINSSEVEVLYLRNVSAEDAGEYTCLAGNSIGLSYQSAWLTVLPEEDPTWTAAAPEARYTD

B1: FGF23: recombinant fibroblast growth factor 23 protein from R&D Systems (protein)
chain: YPDTSPLLGSNWGSLTHLYTATARTSYHLQIHRDGHVDGTPHQTIYSALMITSEDAGSVVITGAMTRRFLCMDLHGNIFGSLHFSPENCKFRQWTLENGYDVYLSQKHHYLVSLGRAKRIFQPGTNPPPFSQFLARRNEVPLLHFYTVRPRRHTRSAEDPPERDPLNVLKPRPRATPVPVSCSRELPSAEEGGPAASDPLGVLRRGRGDARGGAGGADRCRPFPRFV
B2: sKL: recombinant soluble α-klotho ectodomain, mouse aa 35-982 and human aa 34-981, FLAG- or Strep/His-tagged, purified from HEK293 cells (protein)
chain: EPGDGAQTWARFSRPPAPEAAGLFQGTFPDGFLWAVGSAAYQTEGGWQQHGKGASIWDTFTHHPLAPPGDSRNASLPLGAPSPLQPATGDVASDSYNNVFRDTEALRELGVTHYRFSISWARVLPNGSAGVPNREGLRYYRRLLERLRELGVQPVVTLYHWDLPQRLQDAYGGWANRALADHFRDYAELCFRHFGGQVKYWITIDNPYVVAWHGYATGRLAPGIRGSPRLGYLVAHNLLLAHAKVWHLYNTSFRPTQGGQVSIALSSHWINPRRMTDHSIKECQKSLDFVLGWFAKPVFIDGDYPESMKNNLSSILPDFTESEKKFIKGTADFFALCFGPTLSFQLLDPHMKFRQLESPNLRQLLSWIDLEFNHPQIFIVENGWFVSGTTKRDDAKYMYYLKKFIMETLKAIKLDGVDVIGYTAWSLMDGFEWHRGYSIRRGLFYVDFLSQDKMLLPKSSALFYQKLIEKNGFPPLPENQPLEGTFPCDFAWGVVDNYIQVDTTLSQFTDLNVYLWDVHHSKRLIKVDGVVTKKRKSYCVDFAAIQPQIALLQEMHVTHFRFSLDWALILPLGNQSQVNHTILQYYRCMASELVRVNITPVVALWQPMAPNQGLPRLLARQGAWENPYTALAFAEYARLCFQELGHHVKLWITMNEPYTRNMTYSAGHNLLKAHALAWHVYNEKFRHAQNGKISIALQADWIEPACPFSQKDKEVAERVLEFDIGWLAEPIFGSGDYPWVMRDWLNQRNNFLLPYFTEDEKKLIQGTFDFLALSHYTTILVDSEKEDPIKYNDYLEVQEMTDITWLNSPSQVAVVPWGLRKVLNWLKFKYGDLPMYIISNGIDDGLHAEDDQLRVYYMQNYINEALKAHILDGINLCGYFAYSFNDRTAPRFGLYRYAADQFEPKASMKHYRKIIDSNGFPGPETLERFCPEEFTVCTECSFFHTRKS
modifications: left off: small tags and cut ends
notes: recombinant soluble α-klotho ectodomain, mouse aa 35-982 and human aa 34-981, FLAG- or Strep/His-tagged, purified from HEK293 cells

Legend:
[1] = tested on: intact hearts isolated from adult mice; assay: Isolated heart contractility; design: species or system mouse; details: FGF23 9 ng/ml, 30 minutes
Description: Isolated heart contractility was performed as described previously. 14,70,71 Briefly, 2- to 3-month-old male CD-1 mice were anesthetized using 3% isoflurane and hearts were carefully removed and placed into oxygenated Ringer's solution composed of 140 mM NaCl, 2.0 mM KCl, 2.5 mM CaCl2), 1.0 mM MgSO4, 1.5 mM K2HPO4, 10 mM N-2-hydroxyethylpiperazine-N-2-ethanesulfonic acid, and 10 mM glucose (pH 7.4). Atria were then removed, and the intact ventricular muscle was attached to small metallic clips hung vertically from a force transducer (ADInstruments) between bipolar platinum-stimulating electrodes and suspended in 25-ml glass tissue chambers (ADInstruments). Heart muscles were perfused with Ringer's solution continuously bubbled with 100% O2 at room temperature. Hearts were stretched to the length of maximum force development and paced at 1 Hz (5 ms pulse duration, 30-60 V; Grass Instruments SD9 Square Pulse Stimulator). After a stable baseline was obtained, hearts were treated with either vehicle or FGF23 (9 ng/ml) alone or in combination with heparin (0.06 USP/ml) while contractile force output was monitored for 30 minutes. Contractile data were recorded and analyzed with LabChart 8 software (ADInstruments). Waveform changes were analyzed for peak contraction force (in millinewtons) and maximum slope of force development and presented as fold change from baseline values.

FGFR4 = biological target: T1, FGFR4; assay: Plate-based binding assay, FGFR4 coated, FLAG-sKL detected with anti-FLAG HRP; details: 40 ng FGFR4 coated, 80 ng FLAG-sKL, compared with FGFR1c
Description: Proteins were coated on 96-well plates (MaxiSorp; 439454, Thermo Fisher Scientific), and proteins were added to wells in 100 μl of enzyme-linked immunosorbent assay (ELISA) coating buffer (E107, Bethyl Laboratories) with a lid placed overtop and incubated at 4° C. overnight. Plates were washed 5× with 350 μl of assay buffer (50 mM Tris [pH 7.4], 200 mM NaCl, 0.01% Tween 20) on a 50 TS microplate washer (BioTek). Plates were blocked for 1 hour in 200 μl of assay buffer with 0.5% BSA. Plates were washed as before, and proteins were incubated on plates in 100 μl of assay buffer with 0.5% BSA. Proteins or heparin was incubated in orders described in the respective figure legends. Assays using FLAG-tag-based detection were incubated with anti-FLAG coupled to HRP at 1:20,000, and assays using Fc detection were incubated with anti-human Fc coupled to HRP at 1:10,000. […] Reactions were stopped with ELISA stop solution (E115, Bethyl Laboratories) and analyzed using the Synergy HI plate reader (BioTek) at 450 nm wavelength. […] As a control to remove background absorbance values, wells were coated with an equal amount of BSA to match the amount of protein coated in experimental wells and treated the same as experimental wells. […]

[2] = tested on: isolated adult ventricular cardiac myocytes; details: previous studies; cited from earlier work
[3] = Half-life of recombinant sKL in the circulation of rats; format: in vivo, rat; details: tail vein injection 100 μg/kg
Description: To determine the half-life of recombinant sKL protein in the circulation, rats were injected with the Strep-tagged mouse sKL that was purified as described above. Each group consisted of 3 male Sprague Dawley rats (9 weeks of age and weighing approximately 300 g). For injections and bleeding, rats were anesthetized with 2.5% isoflurane. For injections, a shielded i.v. catheter (BD Insyte Autoguard 0.7×19 mm, catalog no. 381412) was inserted into the lateral tail vein and flushed with 100 μl of isotonic saline (0.9%). One milliliter of purified sKL protein dissolved in isotonic saline (100 μg/kg) or isotonic saline was then injected, and the catheter was flushed again with 100 μl of isotonic saline. For bleeding, a shielded i.v. catheter was inserted into the lateral tail vein. Blood samples (300 μl) were taken after 1, 3, 5, 10, 15, 30, and 60 minutes as well as 3, 6, 12, and 48 hours. For collections from 15 minutes to 48 hours postinjection, a separate i.v. catheter was inserted each time to draw blood. For collections from 1 to 15 minutes post-sKL injection, the same i.v. catheter was used, and to exclude contamination with the previous draw, the catheter was flushed with isotonic saline between each sample. […] Serum was then aliquoted and stored at approximately […] before analysis. For the sKL activity assay, wells were coated with 500 ng of mouse FGF23 in 100 μl of coating buffer (E107, Bethyl Laboratories) at 4° C. overnight. Plates were washed 5× at 350 μl of assay buffer (50 mM Tris, [pH 7.4] 200 mM NaCl, 0.01% Tween 20) on a 50 TS microplate washer (BioTek). Plates were blocked for 1 hour in 200 μl of assay buffer with 0.5% BSA. Plates were washed and incubated with 30 μl per well and 70 μl of assay buffer with 0.5% BSA. Standards were run at noted concentrations by using purified Strep-tagged mouse sKL protein with 30 μl of control serum and 70 μl of assay buffer with 0.5% BSA added to ensure consistency. All samples and standards were run in triplicates. After 1 hour, plates were washed, and 150 ng of Fc-FGFR1c were incubated on plates in 100 μl of assay buffer with 0.5% BSA. After 1 hour, plates were washed and incubated with anti-human Fc-HRP at 1:10,000. Plates were washed as above and 100 μl of TMB substrate (E102, Bethyl Laboratories) was added for 15 to 20 minutes until positive wells developed a dark blue color. Reactions were stopped with ELISA stop solution (E115, Bethyl Laboratories) and analyzed using the Synergy HI plate reader (BioTek) at 450 nm wavelength. Amounts of sKL were calculated by taking the slope of the standard curve and calculating where the sample points fit in.

Molecule	peak contraction force [1]	binding of FLAG-sKL to coated FGFR4 (FGFR4)	binding of FLAG-sKL to coated FGFR4 (FGFR4; listed as FLAG-sKL)	FGF23-induced calcium mishandling, altered contractility, proarrhythmic calcium release [2]	time postinjection from which sKL could no longer be detected [3] [h]	time post-injection after which sKL levels were reduced by about half ([3]; earlier time points)	half-life in the circulation ([3]; serum, listed as recombinant sKL protein)	serum sKL level at the 15-minute time point ([3]; versus vehicle)
B1	increased cardiac contractile force							
B2		to a lesser extent	to a lower extent	can be blocked	≥ 3	approximately 10 minutes	approximately 10 minutes	high levels of sKL were detected
